In patent EP4702986A1, “POLYPEPTIDE AND USE THEREOF” (Biocells (Beijing) Biotech Co., Ltd., priority 2023, dated 2024):
Several values for one entry are separate records, joined by “and”; a condition that tells them apart may be missing. Identical values can stand only once. Like-named read-outs stand apart in the source and are kept apart here. Numbered stars: 1 amine (or outer) side, 2 acyl side, 3 side chain; on linkers, the order of the positions; unused ones are H or OH. Square brackets hold non-standard residues; d marks the D form. Side chains are listed from the residue outwards. Ends that are not written are not given here. * marks the point of attachment. C18 diacid = O=C(O)CCCCCCCCCCCCCCCCC(=O)*; γGlu = O=C(O)[C@H](CCC(=O)[*:2])N[*:1]; Hexadienoyl(2E,4E) = C/C=C/C=C/C(=O)*; NMeI = CC[C@H](C)[C@H](NC)C(=O)O; NMeL = CN[C@@H](CC(C)C)C(=O)O; Fumaroyl = O=C(O)/C=C/C(=O)*; Suc = O=C(CCC(=O)[*:2])[*:1]; AEEA = NCCOCCOCC(=O)O

Molecular target: T1, human ETB receptor (Homo sapiens, UniProt P24530)
T1 construct: expressed in transfected cells; host or cells: 293T-17 cells, transient transfection
T1 sequence (P24530 27-442): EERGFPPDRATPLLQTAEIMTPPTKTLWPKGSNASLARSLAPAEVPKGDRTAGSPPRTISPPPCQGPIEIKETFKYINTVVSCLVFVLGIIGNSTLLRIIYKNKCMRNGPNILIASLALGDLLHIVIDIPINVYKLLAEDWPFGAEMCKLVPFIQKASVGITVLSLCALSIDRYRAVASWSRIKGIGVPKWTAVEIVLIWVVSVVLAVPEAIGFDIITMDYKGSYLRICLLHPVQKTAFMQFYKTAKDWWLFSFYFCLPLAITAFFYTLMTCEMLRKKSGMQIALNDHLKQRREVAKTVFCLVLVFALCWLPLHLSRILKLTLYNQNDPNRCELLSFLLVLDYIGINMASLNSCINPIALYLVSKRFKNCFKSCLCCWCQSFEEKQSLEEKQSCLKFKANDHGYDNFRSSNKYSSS
Assay: Screening of polypeptides for activity on human ETB receptor (IP-One Gq kit, % of positive control IRL1620)
Format: cell-based
Protocol: 293T-17 cells were seeded at a density of 650,000 cells per well in a 6-well plate and cultured overnight in an incubator at 37°C and 5% CO2. Afterward, the cells were transfected with an expression vector, PCDNA3.1-hETB which contained a human ETB receptor gene, at a plasmid concentration of 2.5 µg per well. The cells were further cultured for 48 hours, and green fluorescence expression was observed under a fluorescence microscope. The cells were then digested with trypsin and counted. The activity of compounds on the human ETB receptor was determined with the IP-One Gq kit from Cisbio Bioassays. The cells were suspended in Stim Buffer provided in the kit and the cell suspension was added to a 96-well detection plate at 7 µL cell suspension (containing 30,000 cells) per well. The polypeptides to be screened for activity (prepared according to the Preparation Example of the invention) and polypeptide IRL1620 as positive control were dissolved in Stim B to be at a concentration of 2×, and 7 µL was added to the test cells, while 7 µL of PBS solution was added to the cells in the negative control wells. IRL1620 was used as the positive control polypeptide. The plate was sealed and incubated at 37°C for 1 hour in a cell culture incubator. Test wells, positive control wells, and PBS control wells were each added with 3 µL of IP1 d2 working solution and 3 µL of IP1 Tb cryptotate Antibody working solution. The plate was then sealed and incubated in the dark at room temperature (25°C±5°C) for 1 hour. The plate seal was removed, and the […] at 665 nm and 620 nm was measured with an ID5 microplate reader. The ratio of the acceptor emission signal to the donor emission signal, i.e., the value of (signal at 665 nm/signal at 620 nm)×10^4, was calculated for each well. With F1 representing the average value of values of signal at 665 nm/signal at 620 nm determined for the test sample at a specific concentration, F2 representing the average value of values of signal at 665 nm/signal at 620 nm determined for the positive control IRL1620 at the same concentration, and T1 representing the average value of values of signal at 665 nm/signal at 620 nm determined for the PBS negative control, the percentage of activity of the test polypeptide sample relative to the positive control sample IRL1620 is equal to (F1-T1)×100/(F2-T1). hETB sequence (NCBI accession number NM_000115.5).

hETBR agonist activity, percentage of activity relative to IRL1620 | hETBR agonist activity, percentage of activity relative to IRL1620 (@10nM) | hETBR agonist activity, percentage of activity relative to IRL1620 (@1µM) | hETBR agonist activity, percentage of activity relative to IRL1620 (@10µM) | Substance
-21.93%@100nM | -1299.77%@10nM |  |  | Fum-D cyclo(EEAK)YFAHK(-γE-AEEA-AEEA-ODDA)D(2-Abu)IW [BX-104]
14.93%@100nM | 45.51%@10nM |  |  | Fum-D cyclo(EEAK)YFAHK(-γE-AEEA-AEEA-ODDA)DIIW [BX-103]
155.47% | 113.81% |  |  | Fum-D cyclo(EEAK)YFAHLDIIW (Fumaroyl-DEEAKYFAHLDIIW; lactam (positions not given here)) [BX-102]
 |  | 15.80 %@1µM | 18.63%@10µM | Fum-DEE(C16)AVYFAHLDIIW ({Fumaroyl-Asp-Glu-E(C16)}-AVYFAHLDIIW; not fully specified; printed as Fum-DEE(C16)AVYFAHLDIIW) [BX14-1]
46.98%@100nM | 2.68%@10nM |  |  | Fum-DEEAK(-γE-AEEA-AEEA-ODDA)YFAHLDIIW [BX-67] (Fum-DEEAK with lipidated linker N-terminal)
74.1%@100nM | -1095.4%@10nM |  |  | Fum-DEEAK(-γE-AEEA-AEEA-ODDA)YFAHLDIIW [BX-109] (Fum-DEEAK with lipidated linker N-terminal)
132.61%@100nM | 138.99%@10nM |  |  | Fum-DEEAK(-γE-AEEA-AEEA-ODDA)YFAHLDVIW (Fum-DEEAK with lipidated linker N-terminal) [BX-110]
100.37%@100nM | 50.48%@10nM |  |  | Fum-DEEAKYFAHK(-γE-AEEA-AEEA-ODDA)DIIW (Fumaroyl-DEEAKYFAHK([γGlu-AEEA-AEEA-C18 diacid])DIIW) [BX-107]
9.56%@100nM | -1185.11%@10nM |  |  | Fum-DEEAKYFAHK(-γE-AEEA-AEEA-ODDA)DVIW (Fumaroyl-DEEAKYFAHK([γGlu-AEEA-AEEA-C18 diacid])DVIW) [BX-108]
253.05%@100nM | 64.66%@10nM |  |  | Fum-DEEAKYFAHLDIIW (Fumaroyl-DEEAKYFAHLDIIW) [BX-105]
117.63%@100nM | 117.57%@10nM |  |  | Fum-DEEAKYFAHLDVIW (Fumaroyl-DEEAKYFAHLDVIW) [BX-106]
30.96% |  |  |  | Fum-DEEAVYFAHK(-γE-AEEA-AEEA-ODDA)DVIW (Fumaroyl-DEEAVYFAHK([γGlu-AEEA-AEEA-C18 diacid])DVIW) [BX-101]
89.28%@100nM | 26.12%@10nM |  |  | Fum-DEEAVYFAHKDVIW (Fumaroyl-DEEAVYFAHKDVIW) [BX-23]
6.51%@100nM | 15.61%@10nM |  |  | Fum-DEEAVYFAHL(N-Me)DI(N-Me)IW (Fumaroyl-DEEAVYFAH[NMeL]; not fully specified (C-terminus)) [BX-29]
-10.73%@100nM | 8.27%@10nM |  |  | Fum-DEEAVYFAHL(N-Me)DIIW (Fumaroyl-DEEAVYFAH[NMeL]; not fully specified (C-terminus)) [BX-28]
99.81%@100nM | 91.89%@10nM |  |  | Fum-DEEAVYFAHLDVIW (Fumaroyl-DEEAVYFAHLDVIW) [FBX-7]
37.60%@100nM | 47.83%@10nM |  |  | Fum-DEEAVYFAHOrn(-AEEA-AEEA-γE-ODDA)DIIW [BX-51]
-18.64%@100nM | -39.42%@10nM |  |  | Fum-DEEAVYFK(-γE-AEEA-AEEA-ODDA)HLDIIW (Fumaroyl-DEEAVYFK([γGlu-AEEA-AEEA-C18 diacid])-{H2N-Leu-Asp-Ile-Ile-Trp}) [BX-68]
4.84%@100nM | -15.72%@10nM |  |  | Fum-DEEEVYFAHK(-AEEA-AEEA-γE - ODDA)DIIW (Fumaroyl-DEEEVYFAHK([AEEA-AEEA-γGlu-C18 diacid])DIIW) [BX-60]
99.24%@100nM | 59.02%@10nM |  |  | MeO-Fum-D cyclo(EEAK)YFAHLD(2-Abu)IW [BX-65]
-10.59%@100nM | 14.68%@10nM |  |  | MeO-Fum-DEEAVYFAHK(-γE-AEEA-AEEA-ODDA)DIIW ({MeO‑Fum}-DEEAVYFAHK([γGlu-AEEA-AEEA-C18 diacid])DIIW) [BX-75]
64.98%@100nM | -11.84%@10nM |  |  | SA-DEEAVYFAHLDIIW ({Hexadienoyl(2E,4E)}-DEEAVYFAHLDIIW) [BX-111]
0.42%@100nM | 1.72%@10nM |  |  | Suc-DEEAVYFAHL(N-Me)DI(N-Me)IW (Suc-DEEAVYFAH[NMeL]; not fully specified (C-terminus)) [BX-27]
30.58%@100nM | 11.94%@10nM |  |  | Suc-DEEAVYFAHL(N-Me)DIIW (Suc-DEEAVYFAH[NMeL]; not fully specified (C-terminus)) [BX-26]
28.86%@100nM | 19.19%@10nM |  |  | Suc-DEEAVYFAHLDI(N-Me)IW (Suc-DEEAVYFAHLDI[NMeI]W) [BX-25]
40.94%@100nM | 13.97%@10nM |  |  | Suc-DEEAVYFAHOrn(-AEEA-AEEA-γE - ODDA)DIIW [BX-61]

Substance | hETBR agonist activity, percentage of activity relative to IRL1620 | hETBR agonist activity, percentage of activity relative to IRL1620 (@10nM) | hETBR agonist activity, percentage of activity relative to IRL1620 (@1µM) | hETBR agonist activity, percentage of activity relative to IRL1620 (@10µM)
Fum-DEEE(Biotin)VYFAHKDIIW [BX-16] | 22.24%@1µM and 14.10%@10µM |  |  | 
